# Reference: the Immune Epitope Database (IEDB)
# Key:
# HLA-B*15:01 [1] = assay: IEDB peptide-MHC binding, purified MHC/competitive/fluorescence; filed as Kd, often an IC50 or EC50 that approximates it; ≥ and ≤ were set here for values at or beyond the usual limits of such assays
# HLA-B*40:01 = assay: as above; details: source organism: Salmonella enterica subsp. enterica serovar Typhi
# HLA-C*03:03 = assay: IEDB peptide-MHC binding, purified MHC/direct/fluorescence; filed as Kd, often an IC50 or EC50 that approximates it; ≥ and ≤ were set here for values at or beyond the usual limits of such assays; details: source organism: Bacillus anthracis str. A2012
# HLA-C*06:02 = assay: as above; details: source organism: Bacillus anthracis str. A2012
# HLA-C*07:02 = assay: as above; details: source organism: Bacillus anthracis str. A2012
# HLA-C*12:03 = assay: as above; details: source organism: Bacillus anthracis str. A2012
# HLA-C*14:02 = assay: as above; details: source organism: Bacillus anthracis str. A2012
# HLA-C*15:02 = assay: as above; details: source organism: Bacillus anthracis str. A2012
# HLA-B*15:02 = assay: IEDB peptide-MHC binding, purified MHC/competitive/fluorescence; filed as Kd, often an IC50 or EC50 that approximates it; ≥ and ≤ were set here for values at or beyond the usual limits of such assays
# HLA-B*46:01 = assay: as above
# HLA-A*01:01 [2] = assay: IEDB peptide-MHC binding, purified MHC/competitive/fluorescence; ≥ and ≤ were set here for values at or beyond the usual limits of such assays
# HLA-A*02:01 [3] = assay: as above
# HLA-B*15:01 [4] = assay: as above
# HLA-A*01:01 [5] = assay: IEDB peptide-MHC binding, purified MHC/competitive/fluorescence; filed as Kd, often an IC50 or EC50 that approximates it; ≥ and ≤ were set here for values at or beyond the usual limits of such assays; details: source organism: Human immunodeficiency virus 1
# HLA-A*02:03 = assay: as above
# HLA-A*02:06 = assay: as above; details: source organism: Human immunodeficiency virus 1
# HLA-A*11:01 [6] = assay: as above; details: source organism: Human immunodeficiency virus 1
# HLA-A*26:02 = assay: as above; details: source organism: Human immunodeficiency virus 1
# HLA-A*30:01 = assay: as above; details: source organism: Human immunodeficiency virus 1
# HLA-B*15:17 = assay: as above
# HLA-B*18:01 = assay: as above
# HLA-A*02:01 [7] = assay: as above
# HLA-A*02:11 = assay: as above
# HLA-A*02:12 = assay: as above
# HLA-A*02:16 = assay: as above
# HLA-A*02:19 = assay: as above
# HLA-A*69:01 = assay: as above
# HLA-B*27:05 = assay: as above; details: source organism: Salmonella enterica subsp. enterica serovar Typhi
# HLA-B*39:01 = assay: as above
# HLA-A*03:01 [8] = assay: IEDB peptide-MHC binding, purified MHC/competitive/radioactivity; filed as Kd, often an IC50 or EC50 that approximates it; ≥ and ≤ were set here for values at or beyond the usual limits of such assays; details: source organism: Vaccinia virus WR
# HLA-A*11:01 [9] = assay: as above; details: source organism: Vaccinia virus WR
# HLA-A*31:01 = assay: as above; details: source organism: Vaccinia virus WR
# HLA-A*33:01 = assay: as above; details: source organism: Vaccinia virus WR
# HLA-A*68:01 = assay: as above; details: source organism: Vaccinia virus WR
# HLA-A*03:01 [10] = assay: IEDB peptide-MHC binding, purified MHC/competitive/fluorescence; filed as Kd, often an IC50 or EC50 that approximates it; ≥ and ≤ were set here for values at or beyond the usual limits of such assays
# HLA-A*24:03 = assay: as above
# HLA-A*26:01 = assay: as above
# HLA-A*29:02 = assay: as above; details: source organism: Brucella suis ATCC 23445
# HLA-A*68:02 = assay: as above
# HLA-B*27:03 = assay: as above
# HLA-B*51:01 = assay: as above
# HLA-B*57:01 = assay: as above
# [11] = source organism: Salmonella enterica subsp. enterica serovar Typhi
# [12] = source organism: Bacillus anthracis str. A2012
# [13] = source organism: Zaire ebolavirus
# [14] = source organism: Human immunodeficiency virus 1
# [15] = source organism: Vaccinia virus Copenhagen
# [16] = source organism: Brucella suis ATCC 23445
# [17] = source organism: Escherichia coli HS
sequence,measurement,setting,value
MEDNFSIYI,Kd,HLA-B*15:01 [1]; [11],≥ 20 µM
same,Kd,HLA-B*40:01,0.0034 µM
SMFDSWGPF,Kd,HLA-C*03:03,≥ 20 µM
same,Kd,HLA-C*06:02,≥ 20 µM
same,Kd,HLA-C*07:02,0.224 µM
same,Kd,HLA-C*12:03,0.102 µM
same,Kd,HLA-C*14:02,0.185 µM
same,Kd,HLA-C*15:02,≥ 20 µM
same,Kd,HLA-B*15:02; [12],0.005 µM
same,Kd,HLA-B*46:01; [12],0.0043 µM
GQRDTDVPY,Kd,HLA-B*15:02; source organism: Yersinia enterocolitica subsp. enterocolitica 8081,1.24 µM
FLESGAVKY,IC50,HLA-A*01:01 [2]; [13],3.4 µM
same,IC50,HLA-A*02:01 [3]; [13],26.3 µM
same,IC50,HLA-B*15:01 [4]; [13],19.5 µM
WIGQTSHGW,Kd,HLA-B*15:02; source organism: Vibrio cholerae,≥ 20 µM
RSLYNTVAVLY,Kd,HLA-A*01:01 [5],≥ 20 µM
same,Kd,HLA-A*02:03; [14],1.36 µM
same,Kd,HLA-A*02:06,0.597 µM
same,Kd,HLA-A*11:01 [6],1.52 µM
same,Kd,HLA-A*26:02,2.36 µM
same,Kd,HLA-A*30:01,≥ 20 µM
same,Kd,HLA-B*15:01 [1]; [14],1.32 µM
same,Kd,HLA-B*15:17; [14],0.0118 µM
same,Kd,HLA-B*18:01; [14],0.25 µM
KMGKAGYVT,Kd,HLA-A*02:01 [7]; [14],0.323 µM
same,Kd,HLA-A*02:03; [14],0.196 µM
same,Kd,HLA-A*02:06,0.609 µM
same,Kd,HLA-A*02:11; [14],0.0245 µM
same,Kd,HLA-A*02:12; [14],1.21 µM
same,Kd,HLA-A*02:16; [14],0.261 µM
same,Kd,HLA-A*02:19; [14],6 µM
same,Kd,HLA-A*69:01; [14],≥ 20 µM
ALVEMGHHV,Kd,HLA-A*02:01 [7]; [14],0.334 µM
same,Kd,HLA-A*02:03; [14],0.00364 µM
same,Kd,HLA-A*02:06,0.00118 µM
same,Kd,HLA-A*02:11; [14],0.0018 µM
same,Kd,HLA-A*02:12; [14],0.0175 µM
same,Kd,HLA-A*02:16; [14],0.00307 µM
same,Kd,HLA-A*02:19; [14],0.134 µM
same,Kd,HLA-A*69:01; [14],2.01 µM
KQFCLSILL,Kd,HLA-A*02:01 [7]; [11],0.0029 µM
same,Kd,HLA-B*27:05,0.208 µM
same,Kd,HLA-B*39:01; [11],0.0646 µM
same,Kd,HLA-B*40:01,0.0905 µM
MLEGETKLY,IC50,HLA-A*01:01 [2]; [15],8.1 µM
same,IC50,HLA-A*02:01 [3]; [15],≥ 166 µM
same,IC50,HLA-B*15:01 [4]; [15],61.7 µM
same,Kd,HLA-A*03:01 [8],0.22 µM
same,Kd,HLA-A*11:01 [9],7.06 µM
same,Kd,HLA-A*31:01,≥ 61.4 µM
same,Kd,HLA-A*33:01,≥ 57.1 µM
same,Kd,HLA-A*68:01,17 µM
ITAVNRYFK,Kd,HLA-A*02:01 [7]; [16],≥ 20 µM
same,Kd,HLA-A*02:03; [16],≥ 20 µM
same,Kd,HLA-A*02:11; [16],≥ 20 µM
same,Kd,HLA-A*02:12; [16],≥ 20 µM
same,Kd,HLA-A*02:16; [16],≥ 20 µM
same,Kd,HLA-A*02:19; [16],≥ 20 µM
same,Kd,HLA-A*03:01 [10]; [16],0.057 µM
same,Kd,HLA-A*24:03; [16],≥ 20 µM
same,Kd,HLA-A*26:01; [16],≥ 20 µM
same,Kd,HLA-A*29:02,0.757 µM
same,Kd,HLA-A*68:02; [16],≥ 20 µM
same,Kd,HLA-A*69:01; [16],≥ 20 µM
same,Kd,HLA-B*15:01 [1]; [16],≥ 20 µM
same,Kd,HLA-B*15:17; [16],≥ 20 µM
same,Kd,HLA-B*18:01; [16],≥ 20 µM
same,Kd,HLA-B*27:03; [16],≥ 20 µM
same,Kd,HLA-B*39:01; [16],≥ 20 µM
same,Kd,HLA-B*46:01; [16],≥ 20 µM
same,Kd,HLA-B*51:01; [16],≥ 20 µM
same,Kd,HLA-B*57:01; [16],≥ 20 µM
FLRSSSAIE,Kd,HLA-B*15:02; source organism: Coxiella burnetii Dugway 5J108-111,≥ 20 µM
ISLWGSLLK,Kd,HLA-A*02:01 [7]; [17],≥ 20 µM
same,Kd,HLA-A*02:12; [17],≥ 20 µM
same,Kd,HLA-A*02:16; [17],≥ 20 µM
same,Kd,HLA-A*02:19; [17],≥ 20 µM
same,Kd,HLA-A*03:01 [10]; [17],0.0339 µM
same,Kd,HLA-A*24:03; [17],≥ 20 µM
same,Kd,HLA-A*26:01; [17],≥ 20 µM
same,Kd,HLA-A*68:02; [17],≥ 20 µM
same,Kd,HLA-A*69:01; [17],≥ 20 µM
same,Kd,HLA-B*15:01 [1]; [17],≥ 20 µM
same,Kd,HLA-B*18:01; [17],≥ 20 µM
same,Kd,HLA-B*27:03; [17],≥ 20 µM
same,Kd,HLA-B*39:01; [17],≥ 20 µM
same,Kd,HLA-B*46:01; [17],≥ 20 µM
same,Kd,HLA-B*51:01; [17],≥ 20 µM
same,Kd,HLA-B*57:01; [17],≥ 20 µM
